Source: article PMC3289678

Experiments:
[1] = DiFMUP phosphatase assay, crude cell lysates; settings: glycan lost; control: wild-type r-hPAP
[2] = DiFMUP phosphatase assay, crude secreted fractions; settings: glycan lost; control: wild-type r-hPAP
[3] = DiFMUP assay with 70 mM L-(+)-tartrate; settings: glycan lost; control: wild-type r-hPAP
[4] = anti-hPAP western blot, lysates and secreted fractions; settings: glycan lost; control: wild-type r-hPAP
[5] = DiFMUP phosphatase assay after 24 h PNGase F; settings: glycan lost; control: untreated r-hPAP

B1: secretory human prostatic acid phosphatase (hPAP, S-PAP): N62Q (protein)
parent chain: MRAAPLLLARAASLSLGFLFLLFFWLDRSVLAKELKFVTLVFRHGDRSPIDTFPTDPIKESSWPQGFGQLTQLGMEQHYELGEYIRKRYRKFLNESYKHEQVYIRSTDVDRTLMSAMTNLAALFPPEGVSIWNPILLWQPIPVHTVPLSEDQLLYLPFRNCPRFQELESETLKSEEFQKRLHPYKDFIATLGKLSGLHGQDLFGIWSKVYDPLYCESVHNFTLPSWATEDTMTKLRELSELSLLSLYGIHKQKEKSRLQGGVLVNEILNHMKRATQIPSYKKLIMYSAHDTTVSGLQMALDVYNGLLPPYASCHLTELYFEKGEYFVEMYYRNETQHEPYPLMLPGCSPSCPLERFAELVGPVIPQDWSTECMTTNSHQGTEDSTD
With B1 the “enzymatic_activity, other: RFU/µg total protein at 10 min” value [1] was “decreases, 7.8 (0.29) vs 12.2 (0.28)”, the “enzymatic_activity, other: RFU/µg total protein at 10 min” value [2] was “decreases, 67.0 (2.78) vs 109.5 (1.44)” and the “other: inhibition by L-(+)-tartrate” value [3] was “no change”. The expression_or_secretion [4] was “no change”.

B2: secretory human prostatic acid phosphatase (hPAP, S-PAP): N188Q, N301Q (protein)
parent chain: B1 parent chain
With B2 the expression_or_secretion [4] was “abolishes”.

B3: secretory human prostatic acid phosphatase (hPAP, S-PAP): N62Q, N188Q (protein)
parent chain: B1 parent chain
For B3, the “other: inhibition by L-(+)-tartrate” value [3] was “no change” and the expression_or_secretion [4] was “decreases”.

B4: secretory human prostatic acid phosphatase (hPAP, S-PAP): N62Q, N301Q (protein)
parent chain: B1 parent chain
For B4, the expression_or_secretion [4] was “abolishes”.

B5: secretory human prostatic acid phosphatase (hPAP, S-PAP): N62Q, N188Q, N301Q (protein)
parent chain: B1 parent chain
For B5, the expression_or_secretion [4] was “abolishes”.

B6: secretory human prostatic acid phosphatase (hPAP, S-PAP): N301Q (protein)
parent chain: B1 parent chain
With B6 the expression_or_secretion [4] was “abolishes”.

B7: secretory human prostatic acid phosphatase (hPAP, S-PAP): PNGase F (protein)
parent chain: B1 parent chain
In the case of B7, the enzymatic_activity [5] is reported as “no change”.

B8: secretory human prostatic acid phosphatase (hPAP, S-PAP): N188Q (protein)
parent chain: B1 parent chain
In the case of B8, the “other: inhibition by L-(+)-tartrate” value [3] is reported as “no change” and the expression_or_secretion [4] is reported as “decreases”.
